Reference: patent US20190389958A1, “ANTI-CXCR4 ANTIBODIES” (MSM Protein Technologies, Inc., priority 2017, published 2019)

B1: V62.1-R108H-m80: matured anti-CXCR4 antibody; LCVR SEQ ID NO 13, HCVR SEQ ID NO 19 (antibody, V domains shown)
VH: EVQLLESGGGLVQPGGSLRLSCAASGFTISPYSITWVRQAPGKGLEWVSQINSYNGKTYYADSVKGRFTISRDNSKNTLYLQMNSLRAEDTAVYYCARQGKTRVYGYHWHGYGSTHALDYWGQGTLVTVSS
VL: EIVLTQSPGTLSLSPGERATLSCRASQSVSSSYLAWYQQKPGQAPRLLIYGASSRATGIPDRFSGSGSGTDFTLTISRLEPEDFAVYYCQQSDYSYPFTFGQGTKVEIKRT
modifications: heavy chain variable region HCVR, variant 5; light chain variable region LCVR, variant 1
B2: V62.1-R108H-m47-m38: matured anti-CXCR4 antibody; LCVR SEQ ID NO 14, HCVR SEQ ID NO 18 (antibody, V domains shown)
VH: EVQLLESGGGLVQPGGSLRLSCAASGFTFSSYAMSWVRQAPGKGLEWVSAISGSGGTRYADSVKGRFTISRDNSKNTLYLQMNSLRAEDTAVYYCARQGKTRVYGYHWHGYGSTHALDYWGQGTLVTVSS
VL: EIVLTQSPGTLSLSPGERATLSCRASQSVSSSYLAWYQQKPGQAPRLLIYGASSRATGIPDRFSGSGSGTDFTLTISRLEPEDFAVYYCQQWSSDSVTFGQGTKVEIKRT
modifications: heavy chain variable region HCVR, variant 4; light chain variable region LCVR, variant 2
B3: V62.1-R108H-m43-m38: matured anti-CXCR4 antibody; LCVR SEQ ID NO 14, HCVR SEQ ID NO 17 (antibody, V domains shown)
VH: EVQLLESGGGLVQPGGSLRLSCAASGFTFSSYAMSWVRQAPGKGLEWVSAISGSGGGSTRYADSVKGRFTISRDNSKNTLYLQMNSLRAEDTAVYYCARQGKTRVYGYHWHGYGSTHALDYWGQGTLVTVSS
VL: B2 VL
modifications: heavy chain variable region HCVR, variant 3; light chain variable region LCVR, variant 2

Experiments:
hCCR7 = molecular target: T1, hCCR7 (Homo sapiens, UniProt P32248); experiment: Specificity for CXCR4, flow cytometry on GPCR over-expressing cells (Example 6); assay type: binding; conditions: cell line hCCR7; test IgG at 100 nM
T1 construct: expressed in transfected cells
T1 sequence (P32248 25-378): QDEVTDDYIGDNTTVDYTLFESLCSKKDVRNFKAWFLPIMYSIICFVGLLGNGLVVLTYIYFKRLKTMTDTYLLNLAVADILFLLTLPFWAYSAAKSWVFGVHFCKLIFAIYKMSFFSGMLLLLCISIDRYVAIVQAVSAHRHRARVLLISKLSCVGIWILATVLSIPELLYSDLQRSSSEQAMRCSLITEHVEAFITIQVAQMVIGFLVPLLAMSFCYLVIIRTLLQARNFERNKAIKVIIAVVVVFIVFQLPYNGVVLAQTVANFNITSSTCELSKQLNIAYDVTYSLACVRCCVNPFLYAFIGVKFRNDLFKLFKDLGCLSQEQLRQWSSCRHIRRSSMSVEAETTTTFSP
Method: (§1) Cells over-expressing different GPCRs other than CXCR4 and several lines transfected to over-express CXCR4 (R1610-hCXCR4, Cf2Th-hCXCR4 and CHO-hCXCR4) were compared. Cultures were incubated with a test IgG at 100 nM in FACS buffer for 40 min at 4° C. Thereafter, cells were washed twice, stained with anti-human-Fc antibody-PE conjugate (Jackson Immunoresearch Laboratories Inc., West Grove, Pa.), washed twice in FACS buffer and then transferred to FIX buffer. Fluorescence intensities were measured by GUAVA PCA-96 at 425V (in triplicate).
(§2) The expression of GPCRs other than CXCR4 was confirmed using commercially available antibodies (positive controls). For example, a commercial anti-CXCR1 antibody was used as a positive control for confirming the expression of CXCR1 on the CXCR1-transfected CHO cells.

RA1 cells = experiment: Antibody-dependent cell-mediated cytotoxicity (ADCC), LDH release (Example 10); assay type: cell-based, human; conditions: E:T ratio 20:1
Method: ADCC was measured with RA1 cells as the target cells (T) and using the CytoTox 96® Non-Radioactive Cytotoxicity Assay (Promega Corp., Fitchburg, Wis.)), which assay measures lactate dehydrogenase (LDH) release. A round-bottom 96-well culture plate was set up with the following control and experimental wells (100 microliter final volumes):
a. RA1 cells (for target cell spontaneous LDH release control) b. RA1 cells (for target cell maximum LDH release control) c. Culture medium (RPMI 1640 Medium (1X) without phenol red) used for volume correction control d. Culture medium (for culture medium background control) e. RA1 plus effector cells (E) (for target plus effector cell spontaneous LDH release control) f. Experimental wells with effector and target cells (10^5) with serial dilutions of each test IgG or without test IgG.
The plates were centrifuged at 1600 rpm for 2 minutes and incubated at 37° C. for 4 hours. One hour prior to supernatant harvest, 20 microliters of Lysis Solution (10×) were added to the conditions b) and c). The plates were centrifuged at 1600 rpm for 2 minutes, and 50 microliters of the supernatant from each well of the assay plates were transferred to corresponding wells of a flat-bottom 96-well enzymatic assay plate. Substrate Mix (50 microliters) was added to each well of the latter plate, and the plate (protected from light) was incubated for 30 minutes at room temperature. Finally, 50 microliters of Stop Solution were added to each well, and absorbance (OD values) was measured at 490 nm. Each condition was tested in triplicates.
Preliminary experiments had been conducted in order to determine the optimal E:T ratio. The data shown below were obtained at a 20:1 E:T ratio with 10^5 RA1 target cells. The effector cells used in this study were prepared as follows: human peripheral blood mononuclear cells (PBMCs) obtained from a healthy donor were isolated by means of density gradient centrifugation using Lymphocyte Separation Medium (ref. J15-004, Invitrogen Corp., Carlsbad, Calif.). PBMCs at 2×10^6 per mL were cultured for two days in RPMI 1640 with 10% FCS, penicillin/streptomycin and 100 units per mL of human recombinant IL-2 (obtained from Roussel-Uclaf) in a 37° C. humidified incubator (5% CO2).
ADCC percentages obtained at different concentrations of test IgGs were calculated with the formula % ADCC=(f−e)/(b−a)×100, i.e., % ADCC=(OD of Target+Effector cells +/−Test Mab −OD of Spontaneous Release of Target+Effector cells)/(OD Maximal Release Target cells −OD Spontaneous Release of Target cells)×100.

hCCR3 = molecular target: T2, hCCR3 (Homo sapiens, UniProt P51677); experiment: Specificity for CXCR4, flow cytometry on GPCR over-expressing cells (Example 6); assay type: binding; conditions: cell line hCCR3; test IgG at 100 nM
T2 construct: expressed in transfected cells
T2 sequence (P51677 1-355): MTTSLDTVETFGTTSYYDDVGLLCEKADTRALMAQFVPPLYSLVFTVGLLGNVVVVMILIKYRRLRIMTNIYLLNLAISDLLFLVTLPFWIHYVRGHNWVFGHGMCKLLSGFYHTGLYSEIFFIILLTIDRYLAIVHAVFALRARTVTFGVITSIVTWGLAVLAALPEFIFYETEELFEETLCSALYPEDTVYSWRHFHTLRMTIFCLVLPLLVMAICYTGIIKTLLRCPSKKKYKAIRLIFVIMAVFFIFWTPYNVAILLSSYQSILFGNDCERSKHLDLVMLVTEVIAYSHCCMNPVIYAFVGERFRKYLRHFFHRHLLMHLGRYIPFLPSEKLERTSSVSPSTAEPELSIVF
Method: as §1, §2

Molecule | MFI (hCCR7) | ADCC percentage (RA1 cells; 0.0001 μg/mL) [%] | ADCC percentage (RA1 cells; 0.001 μg/mL) [%] | ADCC percentage (RA1 cells; 0.01 μg/mL) [%] | ADCC percentage (RA1 cells; 0.1 μg/mL) [%] | ADCC percentage (RA1 cells; 1 μg/mL) [%] | MFI (hCCR3)
B1 | 25 | 9 | 16 | 45 | 59 | 55 | –
B2 | – | 14 | 36 | 50 | 51 | 55 | 40
B3 | – | 8 | 19 | 40 | 42 | 54 | –
